Assay results as given in the supplement of paper PMC9112550, “Optimization of the antimicrobial peptide Bac7 by deep mutational scanning” (BMC Biology, 2022).

The sequences below were run on Escherichia coli TOP10 (assay: shrunken log2 fold change of peptide-encoding DNA abundance (4.5 h post-induction vs induction); higher = less antimicrobial activity (less host growth inhibition)). Details: time post-induction: 4.5 h; library: site-saturation at positions 5, 18, 19, 20.
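Note: peptides expressed intracellularly from a pBAD plasmid library in pooled LB shake-flask culture, induced with 0.3% L-arabinose, DNA abundance read by NGS, three biological replicates, DESeq2 with apeglm shrinkage.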

| Sequence | shrunken log2 fold change |
| --- | --- |
| RRIRERPPRLPRPRPRPVHKPRP | -0.581 |
| RRIRERPPRLPRPRPRPVIPPRP | -0.23 |
| RRIRERPPRLPRPRPRPVMEPRP | -0.0566 |
| RRIRERPPRLPRPRPRPVNIPRP | -0.0402 |
| RRIRERPPRLPRPRPRPVRQPRP | 0.412 |
| RRIRERPPRLPRPRPRPVRVPRP | 0.247 |
| RRIRERPPRLPRPRPRPVSIPRP | -1.57 |
| RRIRERPPRLPRPRPRPVSLPRP | -0.013 |
| RRIRERPPRLPRPRPRPVTEPRP | -0.255 |
| RRIRERPPRLPRPRPRPVVRPRP | 0.0531 |
| RRIRERPPRLPRPRPRPVWAPRP | 0.0658 |
| RRIRERPPRLPRPRPRPVWCPRP | -0.156 |
| RRIRERPPRLPRPRPRPVWDPRP | 0.00068 |
| RRIRERPPRLPRPRPRPVWIPRP | -0.556 |
| RRIRERPPRLPRPRPRPVWLPRP | -0.0259 |
| RRIRERPPRLPRPRPRPWCLPRP | -0.746 |
| RRIRERPPRLPRPRPRPWDIPRP | -0.0155 |
| RRIRERPPRLPRPRPRPWDSPRP | 0.0192 |
| RRIRERPPRLPRPRPRPWELPRP | -0.238 |
| RRIRERPPRLPRPRPRPWGTPRP | -0.121 |
| RRIRERPPRLPRPRPRPWIVPRP | -0.00567 |
| RRIRERPPRLPRPRPRPWKMPRP | 0.00355 |
| RRIRERPPRLPRPRPRPWKYPRP | -0.0185 |
| RRIRERPPRLPRPRPRPWLMPRP | -0.282 |
| RRIRERPPRLPRPRPRPWMCPRP | -0.11 |

| Sequence | shrunken log2 fold change |
| --- | --- |
| RRIRERPPRLPRPRPRPWMTPRP | -0.108 |
| RRIRERPPRLPRPRPRPWNFPRP | -0.0838 |
| RRIRERPPRLPRPRPRPWPAPRP | 0.238 |
| RRIRERPPRLPRPRPRPWPGPRP | -0.0345 |
| RRIRERPPRLPRPRPRPWPVPRP | -0.643 |
| RRIRERPPRLPRPRPRPWSDPRP | -0.0787 |
| RRIRERPPRLPRPRPRPWVAPRP | -0.00272 |
| RRIRERPPRLPRPRPRPWVCPRP | 0.0297 |
| RRIRERPPRLPRPRPRPWWCPRP | -0.426 |
| RRIRERPPRLPRPRPRPWWLPRP | -0.183 |
| RRIRERPPRLPRPRPRPWWSPRP | -0.0183 |
| RRIRERPPRLPRPRPRPYAMPRP | -0.416 |
| RRIRERPPRLPRPRPRPYAPPRP | -0.624 |
| RRIRERPPRLPRPRPRPYEHPRP | -0.278 |
| RRIRERPPRLPRPRPRPYEKPRP | -0.0219 |
| RRIRERPPRLPRPRPRPYESPRP | -0.0018 |
| RRIRERPPRLPRPRPRPYFDPRP | -0.926 |
| RRIRERPPRLPRPRPRPYGAPRP | -0.569 |
| RRIRERPPRLPRPRPRPYGHPRP | -0.136 |
| RRIRERPPRLPRPRPRPYGTPRP | -0.0949 |
| RRIRERPPRLPRPRPRPYIPPRP | -0.416 |
| RRIRERPPRLPRPRPRPYLVPRP | -0.529 |
| RRIRERPPRLPRPRPRPYMSPRP | -0.0135 |
| RRIRERPPRLPRPRPRPYPDPRP | -1.61 |
| RRIRERPPRLPRPRPRPYRFPRP | -0.708 |

| Sequence | shrunken log2 fold change |
| --- | --- |
| RRIRERPPRLPRPRPRPYRHPRP | -0.0262 |
| RRIRERPPRLPRPRPRPYRTPRP | -1.15 |
| RRIRERPPRLPRPRPRPYSCPRP | 0.0107 |
| RRIRERPPRLPRPRPRPYTFPRP | -0.282 |
| RRIRERPPRLPRPRPRPYTVPRP | -0.74 |
| RRIRERPPRLPRPRPRPYVHPRP | -0.00146 |
| RRIRERPPRLPRPRPRPYVLPRP | -0.125 |
| RRIRERPPRLPRPRPRPYWKPRP | -0.0866 |
| RRIRFRPPRLPRPRPRPAATPRP | 0.372 |
| RRIRFRPPRLPRPRPRPADDPRP | -0.053 |
| RRIRFRPPRLPRPRPRPADFPRP | -0.09 |
| RRIRFRPPRLPRPRPRPAFTPRP | -0.224 |
| RRIRFRPPRLPRPRPRPAGLPRP | -0.0796 |
| RRIRFRPPRLPRPRPRPAHAPRP | 0.0606 |
| RRIRFRPPRLPRPRPRPAIIPRP | -0.149 |
| RRIRFRPPRLPRPRPRPAIMPRP | -0.225 |
| RRIRFRPPRLPRPRPRPANPPRP | -0.156 |
| RRIRFRPPRLPRPRPRPANTPRP | -0.209 |
| RRIRFRPPRLPRPRPRPANYPRP | -0.43 |
| RRIRFRPPRLPRPRPRPAPHPRP | 0.442 |
| RRIRFRPPRLPRPRPRPAPYPRP | 1.75 |
| RRIRFRPPRLPRPRPRPAQEPRP | 0.351 |
| RRIRFRPPRLPRPRPRPAQTPRP | 0.0962 |
| RRIRFRPPRLPRPRPRPAQVPRP | -0.0516 |
| RRIRFRPPRLPRPRPRPARVPRP | 0.319 |

| Sequence | shrunken log2 fold change |
| --- | --- |
| RRIRFRPPRLPRPRPRPASCPRP | 0.0375 |
| RRIRFRPPRLPRPRPRPASTPRP | -0.0365 |
| RRIRFRPPRLPRPRPRPATNPRP | -0.213 |
| RRIRFRPPRLPRPRPRPAVIPRP | -0.0689 |
| RRIRFRPPRLPRPRPRPAVMPRP | 0.248 |
| RRIRFRPPRLPRPRPRPAYHPRP | -0.00712 |
| RRIRFRPPRLPRPRPRPCAHPRP | -0.197 |
| RRIRFRPPRLPRPRPRPCAMPRP | -0.561 |
| RRIRFRPPRLPRPRPRPCAYPRP | 2.21 |
| RRIRFRPPRLPRPRPRPCCAPRP | -0.0621 |
| RRIRFRPPRLPRPRPRPCCHPRP | -0.415 |
| RRIRFRPPRLPRPRPRPCEDPRP | -0.13 |
| RRIRFRPPRLPRPRPRPCEEPRP | 0.178 |
| RRIRFRPPRLPRPRPRPCFNPRP | -0.385 |
| RRIRFRPPRLPRPRPRPCKPPRP | -0.109 |
| RRIRFRPPRLPRPRPRPCLAPRP | -0.245 |
| RRIRFRPPRLPRPRPRPCLEPRP | -0.489 |
| RRIRFRPPRLPRPRPRPCMPPRP | -0.35 |
| RRIRFRPPRLPRPRPRPCNPPRP | -0.0333 |
| RRIRFRPPRLPRPRPRPCPCPRP | -0.21 |
| RRIRFRPPRLPRPRPRPCRWPRP | 0.0901 |
| RRIRFRPPRLPRPRPRPCSRPRP | -0.22 |
| RRIRFRPPRLPRPRPRPCSVPRP | -0.338 |
| RRIRFRPPRLPRPRPRPCTVPRP | -0.318 |
| RRIRFRPPRLPRPRPRPCTYPRP | -0.384 |

| Sequence | shrunken log2 fold change |
| --- | --- |
| RRIRFRPPRLPRPRPRPCWMPRP | -0.0459 |
| RRIRFRPPRLPRPRPRPCWPPRP | 0.0203 |
| RRIRFRPPRLPRPRPRPCWRPRP | -0.199 |
| RRIRFRPPRLPRPRPRPDAMPRP | 0.138 |
| RRIRFRPPRLPRPRPRPDDKPRP | -0.059 |
| RRIRFRPPRLPRPRPRPDDPPRP | 0.212 |
| RRIRFRPPRLPRPRPRPDELPRP | 0.0112 |
| RRIRFRPPRLPRPRPRPDFMPRP | -0.27 |
| RRIRFRPPRLPRPRPRPDFPPRP | -0.0311 |
| RRIRFRPPRLPRPRPRPDFQPRP | -0.546 |
| RRIRFRPPRLPRPRPRPDFSPRP | -0.259 |
| RRIRFRPPRLPRPRPRPDFWPRP | 0.0889 |
| RRIRFRPPRLPRPRPRPDHHPRP | -0.452 |
| RRIRFRPPRLPRPRPRPDICPRP | -0.0857 |
| RRIRFRPPRLPRPRPRPDKGPRP | -0.0555 |
| RRIRFRPPRLPRPRPRPDKHPRP | -0.478 |
| RRIRFRPPRLPRPRPRPDLFPRP | 0.0316 |
| RRIRFRPPRLPRPRPRPDLMPRP | -0.114 |
| RRIRFRPPRLPRPRPRPDMVPRP | -0.499 |
| RRIRFRPPRLPRPRPRPDNGPRP | -0.13 |
| RRIRFRPPRLPRPRPRPDNRPRP | -0.0149 |
| RRIRFRPPRLPRPRPRPDNSPRP | -0.726 |
| RRIRFRPPRLPRPRPRPDNYPRP | -0.12 |
| RRIRFRPPRLPRPRPRPDPDPRP | -0.113 |
| RRIRFRPPRLPRPRPRPDPWPRP | 0.0822 |

| Sequence | shrunken log2 fold change |
| --- | --- |
| RRIRFRPPRLPRPRPRPDQHPRP | -0.34 |
| RRIRFRPPRLPRPRPRPDREPRP | -0.006 |
| RRIRFRPPRLPRPRPRPDSPPRP | -0.168 |
| RRIRFRPPRLPRPRPRPDTNPRP | -0.208 |
| RRIRFRPPRLPRPRPRPDTYPRP | -0.221 |
| RRIRFRPPRLPRPRPRPDVHPRP | -0.179 |
| RRIRFRPPRLPRPRPRPEAMPRP | -0.000462 |
| RRIRFRPPRLPRPRPRPECKPRP | -0.0133 |
| RRIRFRPPRLPRPRPRPEDFPRP | 0.0568 |
| RRIRFRPPRLPRPRPRPEDWPRP | 0.181 |
| RRIRFRPPRLPRPRPRPEEAPRP | 0.253 |
| RRIRFRPPRLPRPRPRPEESPRP | 0.195 |
| RRIRFRPPRLPRPRPRPEEYPRP | -0.00963 |
| RRIRFRPPRLPRPRPRPEFPPRP | -0.132 |
| RRIRFRPPRLPRPRPRPEGGPRP | 0.586 |
| RRIRFRPPRLPRPRPRPEGQPRP | 0.15 |
| RRIRFRPPRLPRPRPRPEHLPRP | -0.223 |
| RRIRFRPPRLPRPRPRPEHNPRP | -0.489 |
| RRIRFRPPRLPRPRPRPEHPPRP | -0.0569 |
| RRIRFRPPRLPRPRPRPEHVPRP | -0.0205 |
| RRIRFRPPRLPRPRPRPEIQPRP | 0.0158 |
| RRIRFRPPRLPRPRPRPELHPRP | -0.235 |
| RRIRFRPPRLPRPRPRPEMWPRP | -0.0843 |
| RRIRFRPPRLPRPRPRPENEPRP | 0.15 |
| RRIRFRPPRLPRPRPRPENVPRP | -0.0124 |
